Data reported in article PMC5539093, “Functional Characterization of Four Putative δ^1-Pyrroline-5-Carboxylate Reductases from Bacillus subtilis” (Frontiers in Microbiology, 2017).
Blank lines part the entries; values can stand above or below the molecule they belong to.

Key:
ProG = molecular target: T1, ProG (Bacillus subtilis, UniProt Q00777); assay: NAD(P)H oxidation at […] nm; format: biochemical
T1 construct: full-length; pMCSG68, N-terminal His6-TEV tag removed; E. coli BL21 Gold; homodimer by SAXS

ProH = molecular target: T2, ProH (Bacillus subtilis, UniProt P0CI77); assay: NAD(P)H oxidation at […] nm; format: biochemical
T2 construct: full-length; pMCSG68, N-terminal His6-TEV tag removed; E. coli BL21 Gold; homodimer by SAXS

ProI = molecular target: T3, ProI (Bacillus subtilis, UniProt P54552); assay: NAD(P)H oxidation at […] nm; format: biochemical
T3 construct: full-length; pMCSG68, N-terminal His6-TEV tag removed; E. coli BL21 Gold; homodimer by SAXS

ComER = molecular target: T4, ComER (Bacillus subtilis, UniProt P39696); assay: NAD(P)H oxidation at […] nm; format: biochemical
T4 construct: full-length; pMCSG68, N-terminal His6-TEV tag removed; E. coli BL21 Gold; monomer by SAXS

purified protein [1] = substrate: NC(=O)C1=CN([C@@H]2O[C@H](COP(=O)(O)OP(=O)(O)OC[C@H]3O[C@@H](n4cnc5c(N)ncnc54)[C@H](O)[C@@H]3O)[C@@H](O)[C@H]2O)C=CC1; assay: purified protein; format: biochemical, Bacillus subtilis; conditions: 1 mM L-P5C, 20 mM Tris-HCl pH 7.0, 30°C
purified protein [2] = substrate: NC(=O)C1=CN([C@@H]2O[C@H](COP(=O)(O)OP(=O)(O)OC[C@H]3O[C@@H](n4cnc5c(N)ncnc54)[C@H](OP(=O)(O)O)[C@@H]3O)[C@@H](O)[C@H]2O)C=CC1; assay: purified protein; format: biochemical, Bacillus subtilis; conditions: 1 mM L-P5C, 20 mM Tris-HCl pH 7.0, 30°C, kcat per monomer
purified protein [3] = substrate: O=C(O)[C@@H]1CCC=N1; assay: purified protein; format: biochemical, Bacillus subtilis; conditions: 0.5 mM NADPH, 20 mM Tris-HCl pH 7.0, 30°C
[4] = molecular target: the molecule itself; assay: small-angle X-ray scattering (SAXS) in line with SEC; each native protein at 5 mg mL^-1 loaded onto a Superdex 200 column in 20 mM HEPES pH 8.0, 150 mM NaCl, 2 mM TCEP, routed into the flow cell; oligomeric state from mass, Rg, Dmax and ab initio envelope

IC50 (ProG): 22.3 ± 2.1 mM
IC50 (ProH): 41.4 ± 4.2 mM
Molecule: O=C(O)[C@@H]1CCCN1 [proline]

IC50 (ProI): 6.22 ± 0.6 mM
IC50 (ProH): 44.5 ± 11.6 mM
IC50 (ComER): 29.7 ± 3.7 mM
Molecule: NC(=O)c1ccc[n+]([C@@H]2O[C@H](COP(=O)(O)OP(=O)(O)OC[C@H]3O[C@@H](n4cnc5c(N)ncnc54)[C@H](O)[C@@H]3O)[C@@H](O)[C@H]2O)c1 [NAD^+]

IC50 (ProG): 0.23 ± 0.03 mM
IC50 (ProI): 0.34 ± 0.04 mM
IC50 (ProH): 0.66 ± 0.1 mM
IC50 (ComER): 0.48 ± 0.07 mM
Molecule: NC(=O)c1ccc[n+]([C@@H]2O[C@H](COP(=O)(O)OP(=O)(O)OC[C@H]3O[C@@H](n4cnc5c(N)ncnc54)[C@H](OP(=O)(O)O)[C@@H]3O)[C@@H](O)[C@H]2O)c1 [NADP^+]

B1: ComER (Bacillus subtilis subsp. subtilis str. 168) (protein)
chain: MKIGFIGTGNMGTILIESFIESKAADPSNMTITNRTIEKALHIKNRYNSINVTESLEKLVSENEMIFICVKPLDIYPLLARALPYLRKDHILISITSPVQTEQLEQYVPCQVARVIPSITNRALAGVSLVTFGTSCGESAKAKINELMQHISHPLQIESDITRVASDIVSCGPAFMSYLIQRFIDAAVSETSVSKQDAILMCKEMLVGMGKLLETELYTLPALQEKVCVKGGVTGEGIKALESGVQDMFHRVFQNTHMKYEEDISAVKKQFHV
notes: full-length; pMCSG68, N-terminal His6-TEV tag removed; E. coli BL21 Gold; monomer by SAXS
Km (purified protein [1]; kcat per monomer): 226 ± 14 µM
kcat (purified protein [1]; kcat per monomer): 0.06 s⁻¹
kcat/Km (purified protein [1]; kcat per monomer): 270 M⁻¹ s⁻¹
Km (purified protein [2]): 1.2 ± 0.4 µM
kcat (purified protein [2]): 0.09 s⁻¹
kcat/Km (purified protein [2]): 75000 M⁻¹ s⁻¹
Km (purified protein [3]; kcat per monomer): 3150 ± 1420 µM
kcat (purified protein [3]; kcat per monomer): 0.09 s⁻¹

B2: ProH, putative δ1-pyrroline-5-carboxylate (P5C) reductase from Bacillus subtilis (enzyme, Bacillus subtilis strain 168, UniProt P0CI77 1-297, looked up)
chain: MRTKKRTKEMLPIFDQKKVAFIGAGSMAEGMISGIVRANKIPKQNICVTNRSNTERLTELELQYGIKGALPNQLCIEDMDVLILAMKPKDAENALSSLKSRIQPHQLILSVLAGITTSFIEQSLLNEQPVVRVMPNTSSMIGASATAIALGKYVSEDLKKLAEALLGCMGEVYTIQENQMDIFTGIAGSGPAYFYYLMEFIEKTGEEAGLDKQLSRSIGAQTLLGAAKMLMETGEHPEILRDNITSPNGTTAAGLQALKKSGGGEAISQAIKHAAKRSKEISEDIEKTAAPLSGVIK
notes: ProH, putative P5C reductase, Bacillus subtilis strain 168; calculated mass 32.03 kDa; Cloned in pMCSG68 (His6 tag and TEV site at the N-terminus); also called P5C reductase ProH; source: E. coli BL21 Gold, purified (Ni-NTA, TEV cleavage, second Ni-NTA, SEC on Superdex 200); not shown: His6, N-terminal, cleaved
stoichiometry N [4]: 2

B3: ProG, putative δ1-pyrroline-5-carboxylate (P5C) reductase from Bacillus subtilis (enzyme, Bacillus subtilis strain 168, UniProt Q00777 1-272, looked up)
chain: MEQIGLIGYGSMADMIARQLLKHEQIKENELFIETRTKGERLRALMSDYPNVSADPLENWANTCQLILICVPPLHVIETMRRLYPYVNRNTHIVSIAAGVPLRLLEAETEAGISRVIPAITSEAEAGISLVVHSEALAAEKKERLNELLSVFSRVREIKESNLDVASNLTSSAPGFIAAIFEELALSAVRNSSLSKEEAFDFLIHSLYGTGKMLIEKNMSFEETLERVATKGGITGEGAEVIHASVPDVFDEVFERTLRKYELLTEQVGKQT
notes: ProG, putative P5C reductase, Bacillus subtilis strain 168; calculated mass 30.20 kDa; Cloned in pMCSG68 (His6 tag and TEV site at the N-terminus); also called P5C reductase ProG; source: E. coli BL21 Gold, purified (Ni-NTA, TEV cleavage, second Ni-NTA, SEC on Superdex 200); not shown: His6, N-terminal, cleaved
Km (purified protein [2]): 232 ± 18 µM
kcat (purified protein [2]): 19 s⁻¹
kcat/Km (purified protein [2]): 84000 M⁻¹ s⁻¹
Km (purified protein [3]): 64.9 ± 8.1 µM
stoichiometry N [4]: 2

B4: ProH (Bacillus subtilis subsp. subtilis str. 168) (protein)
chain: MRTKKRTKEMLPIFDQKKVAFIGAGSMAEGMISGIVRANKIPKQNICVTNRSNTERLTELELQYGIKGALPNQLCIEDMDVLILAMKPKDAENALSSLKSRIQPHQLILSVLAGITTSFIEQSLLNEQPVVRVMPNTSSMIGASATAIALGKYVSEDLKKLAEALLGCMGEVYTIQENQMDIFTGIAGSGPAYFYYLMEFIEKTGEEAGLDKQLSRSIGAQTLLGAAKMLMETGEHPEILRDNITSPNGTTAAGLQA
notes: full-length; pMCSG68, N-terminal His6-TEV tag removed; E. coli BL21 Gold; homodimer by SAXS
Km (purified protein [1]): 786 ± 36 µM
Km (purified protein [2]): 13.6 ± 2.6 µM
kcat (purified protein [2]): 814 s⁻¹
kcat/Km (purified protein [2]): 6.3e+07 M⁻¹ s⁻¹

B5: ProI, putative δ1-pyrroline-5-carboxylate (P5C) reductase from Bacillus subtilis (enzyme, Bacillus subtilis strain 168, UniProt P54552 1-278, looked up)
chain: MKKIGFVGAGSMAEAMINGILQSGITKPEHIYITNRSNDERLIELKETYSVRPCRDKNEFFTHTDIIILAFKPKDAAESIDSIRPYIKDQLVISVLAGLTIETIQHYFGRKLAVIRVMPNTSAAIRKSATGFSVSTEASKNDIIAAKALLETIGDATLVEERHLDAVTAIAGSGPAYVYRYIEAMEKAAQKVGLDKETAKALILQTMAGATDMLLQSGKQPEKLRKEITSPGGTTEAGLRALQDSRFEEAIIHCIEETAKRSAEIKEQFAGAALERHS
notes: ProI, putative P5C reductase, Bacillus subtilis strain 168; calculated mass 30.90 kDa; Cloned in pMCSG68 (His6 tag and TEV site at the N-terminus); also called P5C reductase ProI; source: E. coli BL21 Gold, purified (Ni-NTA, TEV cleavage, second Ni-NTA, SEC on Superdex 200); not shown: His6, N-terminal, cleaved
Km (purified protein [1]; kcat per monomer): 1,810 ± 480 μM
kcat (purified protein [1]; kcat per monomer): 0.28 s⁻¹
kcat/Km (purified protein [1]; kcat per monomer): 150 M⁻¹ s⁻¹
Km (purified protein [2]): 51.8 ± 2.8 µM
kcat (purified protein [2]): 0.14 s⁻¹
kcat/Km (purified protein [2]): 2600 M⁻¹ s⁻¹
Km (purified protein [3]): 203 ± 30 µM
stoichiometry N [4]: 2
